# Measured values taken from US20250145722A1 (TRUEBINDING, published 2025).
# B1: recombinant human TREM2 protein (Sino Biological, 11084-H08H) (receptor, UniProt Q9NZC2 19-174, looked up)
# chain: HNTTVFQGVAGQSLQVSCPYDSMKHWGRRKAWCRQLGEKGPCQRVVSTHNLWLLSFLRRWNGSTAITDDTLGGTLTITLRNLQPHDAGLYQCQSLHGSEADTLRKVLVEVLADPLDHRDAGDLWFPGESESFEDAHVEHSISRSLLEGEIPFPPTS
# notes: Detected with anti-6x His tag antibody, so His-tagged; tag not described
# B2: TB001 (antibody, IgG4, V domains shown)
# VH: QVQLVQSGSELKKPGASVKVSCKASGYTFTNYGMNWVRQAPGQGLKWMGWINTNTGEPTYVEEFTGRFVFSLETSVSTAYLQISSLKAEDTAVYFCAPYDNFFAYWGQGTTVTVSS
# VL: DIVLTQSPLSLPVTPGEPASISCRSSKSLLYKDGKTYLNWFLQKPGQSPQLLIYLMSTHASGVPDRFSGSGSGTDFTLKISRVEAEDVGVYYCQQLVDYPLTFGGGTKLEIKR
# notes: also called IMT001; IMT001-4
# B3: 6H6.2D6 (antibody, human IgG4 S228P, kappa, V domains shown)
# VH: QIQLVQSGPELKKPGETVKISCKASGYTFTTYGMSWVKQAPGKGLKWMAWINTYSGVPTYADDFKGRFAFSLETSASTAYLQINNLTNEDTATYFCARGPYAMDYWGQGTSVTVSS
# VL: DIQMTQTTSSLSASLGDRVTISCSASQGISNYLNWYQQKPDGTVKLLIYYTSSLHSGVPSRFSGSGSGTDYSLTISNLEPEDIATYYCQQYSELPYTFGSGTKLEIKR
# B4: recombinant human TNF sRI (R&D Systems, 372-RI/CF) (receptor, UniProt P19438 30-211, looked up)
# chain: LVPHLGDREKRDSVCPQGKYIHPQNNSICCTKCHKGTYLYNDCPGPGQDTDCRECESGSFTASENHLRHCLSCSKCRKEMGQVEISSCTVDRDTVCGCRKNQYRHYWSENLFQCFNCSLCLNGTVHLSCQEKQNTVCTCHAGFFLRENECVSCSNCKKSLECTKLCLPQIENVKGTEDSGTT
# notes: Detected with anti-human IgG
# Experiments:
# [1] = target: T1, human Galectin-3 (Gal3), full-length recombinant (human, UniProt P17931 2-250); experiment: ELISA: Gal3 coated, His-tagged TREM2 detected with anti-6xHis-HRP; concentrations of the bars not printed on the sheet
# T1 construct: treated here as one molecule; also called hGAL3; hGal3
# T1 sequence (P17931 2-250 limits assumed): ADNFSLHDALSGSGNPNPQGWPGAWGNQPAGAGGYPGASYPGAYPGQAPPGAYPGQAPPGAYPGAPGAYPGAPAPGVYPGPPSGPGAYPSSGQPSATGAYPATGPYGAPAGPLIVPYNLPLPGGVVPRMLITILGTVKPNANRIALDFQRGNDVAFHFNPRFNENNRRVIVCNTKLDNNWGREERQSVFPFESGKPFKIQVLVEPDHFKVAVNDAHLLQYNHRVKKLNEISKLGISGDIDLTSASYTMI
# [2] = target: T1, human Galectin-3 (Gal3), full-length …; experiment: cell-based or functional assay
# [3] = target: T1, human Galectin-3 (Gal3), full-length …; experiment: titration of the antibody on a panel of galectins, read as OD450; set-up not given, species of the galectins not given
# [4] = target: T1, human Galectin-3 (Gal3), full-length …; experiment: blocking ELISA, Gal3 coated, biotin-TLR4
# [5] = target: T1, human Galectin-3 (Gal3), full-length …; experiment: blocking ELISA, Gal3 coated, biotin-APP695
# [6] = target: T1, human Galectin-3 (Gal3), full-length …; experiment: blocking ELISA, Gal3 coated, biotin-Abeta42 oligomer
# [7] = target: T1, human Galectin-3 (Gal3), full-length …; experiment: blocking ELISA, Gal3 coated, biotin-Abeta42 peptide
# [8] = target: T1, human Galectin-3 (Gal3), full-length …; experiment: blocking ELISA, Gal3 coated, TREM2-His
# mouse Gal3 = mouse Gal3 (mouse, UniProt P16110 2-264, limits assumed); experiment: not stated (FIG. 50)
# Chain of mouse Gal3 (P16110 2-264 limits assumed): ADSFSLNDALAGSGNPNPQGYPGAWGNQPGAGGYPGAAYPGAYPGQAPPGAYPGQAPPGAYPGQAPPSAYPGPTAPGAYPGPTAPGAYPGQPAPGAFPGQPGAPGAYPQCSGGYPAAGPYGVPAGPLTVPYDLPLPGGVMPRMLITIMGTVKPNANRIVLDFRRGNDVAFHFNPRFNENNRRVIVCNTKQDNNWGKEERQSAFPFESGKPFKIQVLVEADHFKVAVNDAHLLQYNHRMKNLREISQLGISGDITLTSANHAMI
# [9] = target: T1, human Galectin-3 (Gal3), full-length …; experiment: not stated (FIG. 50)
# [10] = target: T1, human Galectin-3 (Gal3), full-length …; experiment: blocking ELISA, Gal3 coated, biotin-TGFβR2
# [11] = target: T1, human Galectin-3 (Gal3), full-length …; experiment: blocking ELISA, Gal3 coated, PDGFR alpha-Fc, antibody 20 µg/ml
# [12] = target: T1, human Galectin-3 (Gal3), full-length …; experiment: blocking ELISA, Gal3 coated, PDGFR beta-Fc, antibody 20 µg/ml
# [13] = target: T1, human Galectin-3 (Gal3), full-length …; experiment: Gator biosensor kinetics (legend: SPR), 6H6 mIgG2a loaded on probes, rhGalectin-3 as analyte, 1:1 fit
# [14] = target: T1, human Galectin-3 (Gal3), full-length …; experiment: blocking ELISA, Gal3 coated, EGFR-Fc, antibody 20 µg/ml
# [15] = target: T1, human Galectin-3 (Gal3), full-length …; experiment: Gator biosensor kinetics, antibody loaded on probe, rhGal3-His in solution, 1:1 fit
# [16] = target: T1, human Galectin-3 (Gal3), full-length …; experiment: blocking ELISA, Gal3 coated, VEGFR3-Fc, antibody 20 µg/ml
# [17] = target: T1, human Galectin-3 (Gal3), full-length …; experiment: ELISA: Gal3 coated at 2 or 3 µg/ml, protein at 2 or 3 µg/ml, anti-human IgG-HRP, A450
binder,measurement,setting,value
B1,binding result,[1],binds
B2,IC50 of TGF-β-induced pro-collagen production in LX-2 cells,[2],0.25 µg/mL
same,EC50 (read off the curve),[3],~0.007 µg/mL
same,% blocking of Gal3-TLR4 binding,[4],> 90%
same,% blocking of Gal3-APP695 binding,[5],> 90%
same,% blocking of Gal3-Abeta42 oligomer binding,[6],> 90%
same,IC50,[6],3.17 nM
same,% blocking of Gal3-Abeta42 peptide binding,[7],> 90%
same,% blocking of Gal3-TREM2 binding,[8],> 90%
same,Kd,mouse Gal3,2.3 nM
same,Kd,[9],3.6 nM
same,IC50,[10],12.8 nM
B3,% blocking of Gal3-PDGFR alpha binding,[11],> 70%
same,% blocking of Gal3-PDGFR beta binding,[12],> 70%
same,koff,[13],0.000299 s⁻¹
same,kon,[13],88000 M⁻¹ s⁻¹
same,% blocking of Gal3-EGFR binding,[14],> 70%
same,Kd,[15],3.39 nM
same,% blocking of Gal3-VEGFR3 binding,[16],> 70%
B4,binding result,[17],binds
